US20050119464

How the values were obtained:
H-kininogen, P01042 = biological target: T1, H-kininogen, P01042
T1 chain: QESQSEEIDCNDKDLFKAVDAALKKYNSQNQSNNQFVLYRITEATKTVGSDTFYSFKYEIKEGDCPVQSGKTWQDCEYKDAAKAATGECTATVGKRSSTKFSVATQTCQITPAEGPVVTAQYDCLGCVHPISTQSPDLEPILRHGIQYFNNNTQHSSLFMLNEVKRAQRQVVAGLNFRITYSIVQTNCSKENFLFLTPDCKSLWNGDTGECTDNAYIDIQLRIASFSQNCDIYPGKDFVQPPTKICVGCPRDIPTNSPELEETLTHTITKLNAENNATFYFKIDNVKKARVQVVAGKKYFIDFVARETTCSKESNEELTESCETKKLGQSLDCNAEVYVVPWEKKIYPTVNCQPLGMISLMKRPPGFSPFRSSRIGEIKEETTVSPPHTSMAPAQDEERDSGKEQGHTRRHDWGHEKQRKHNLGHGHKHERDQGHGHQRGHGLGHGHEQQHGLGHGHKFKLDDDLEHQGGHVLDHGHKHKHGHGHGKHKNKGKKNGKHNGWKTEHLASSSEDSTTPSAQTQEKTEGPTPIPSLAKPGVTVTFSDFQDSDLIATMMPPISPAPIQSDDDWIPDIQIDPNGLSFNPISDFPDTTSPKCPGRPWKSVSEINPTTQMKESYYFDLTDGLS

[1] = biological target: T2, antimicrobial peptide LL-37, P49913
T2 chain: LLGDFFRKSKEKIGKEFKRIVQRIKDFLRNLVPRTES

[2] = biological target: the different subclasses of IgG
cystatin C, P01034 = biological target: T3, cystatin C, P01034
T3 chain: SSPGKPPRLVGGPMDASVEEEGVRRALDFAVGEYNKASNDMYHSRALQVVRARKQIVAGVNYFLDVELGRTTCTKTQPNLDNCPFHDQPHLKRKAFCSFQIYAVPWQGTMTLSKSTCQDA

[3] = biological target: synthetic peptide homologous to amino acids 234 to 241 of human IgG
Z-LVG-CHN2 = biological target: T4, Z-LVG-CHN2
T4 chain: LVG

fibrinogen, P02671 = biological target: T5, fibrinogen, P02671
T5 chain 1: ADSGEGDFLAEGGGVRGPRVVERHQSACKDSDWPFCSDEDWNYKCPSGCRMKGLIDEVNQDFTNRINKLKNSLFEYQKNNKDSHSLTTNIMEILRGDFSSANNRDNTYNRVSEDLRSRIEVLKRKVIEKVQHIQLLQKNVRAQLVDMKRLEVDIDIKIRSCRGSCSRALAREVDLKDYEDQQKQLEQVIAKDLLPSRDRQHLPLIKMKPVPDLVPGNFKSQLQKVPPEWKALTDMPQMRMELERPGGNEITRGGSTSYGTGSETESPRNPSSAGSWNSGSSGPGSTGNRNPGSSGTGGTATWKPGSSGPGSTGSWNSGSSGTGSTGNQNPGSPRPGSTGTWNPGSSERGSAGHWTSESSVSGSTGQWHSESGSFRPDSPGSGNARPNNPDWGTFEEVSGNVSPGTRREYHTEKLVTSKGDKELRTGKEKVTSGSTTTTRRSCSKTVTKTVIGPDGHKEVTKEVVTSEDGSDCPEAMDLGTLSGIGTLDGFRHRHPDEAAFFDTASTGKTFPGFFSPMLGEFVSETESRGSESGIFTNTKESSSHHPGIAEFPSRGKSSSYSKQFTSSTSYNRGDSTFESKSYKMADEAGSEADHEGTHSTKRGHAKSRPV
T5 chain 2: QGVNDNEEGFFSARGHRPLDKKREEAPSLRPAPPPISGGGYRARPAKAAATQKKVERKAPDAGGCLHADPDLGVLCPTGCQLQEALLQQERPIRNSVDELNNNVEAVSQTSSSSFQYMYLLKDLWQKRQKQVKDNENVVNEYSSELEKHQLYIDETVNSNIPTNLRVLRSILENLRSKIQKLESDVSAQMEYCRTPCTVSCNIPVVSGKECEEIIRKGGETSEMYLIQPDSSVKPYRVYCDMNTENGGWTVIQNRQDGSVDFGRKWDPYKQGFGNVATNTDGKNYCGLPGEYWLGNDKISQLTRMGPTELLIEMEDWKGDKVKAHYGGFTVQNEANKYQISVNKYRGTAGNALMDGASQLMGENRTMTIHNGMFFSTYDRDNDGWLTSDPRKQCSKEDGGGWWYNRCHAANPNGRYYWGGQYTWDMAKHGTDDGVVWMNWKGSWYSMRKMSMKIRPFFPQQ
T5 chain 3: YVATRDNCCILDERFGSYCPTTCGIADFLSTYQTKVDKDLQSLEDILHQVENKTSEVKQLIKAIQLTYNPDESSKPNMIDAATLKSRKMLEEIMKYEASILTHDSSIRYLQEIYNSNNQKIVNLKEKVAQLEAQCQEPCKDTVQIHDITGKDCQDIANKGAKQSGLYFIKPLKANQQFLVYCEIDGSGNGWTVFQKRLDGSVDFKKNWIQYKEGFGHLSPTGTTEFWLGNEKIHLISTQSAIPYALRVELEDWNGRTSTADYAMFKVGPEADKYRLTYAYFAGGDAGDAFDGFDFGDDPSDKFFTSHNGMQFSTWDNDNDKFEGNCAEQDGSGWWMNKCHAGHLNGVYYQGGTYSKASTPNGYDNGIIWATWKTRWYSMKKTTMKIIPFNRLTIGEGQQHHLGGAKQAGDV

[4] = biological target: T6, cystatin C from rat, P14841
T6 chain: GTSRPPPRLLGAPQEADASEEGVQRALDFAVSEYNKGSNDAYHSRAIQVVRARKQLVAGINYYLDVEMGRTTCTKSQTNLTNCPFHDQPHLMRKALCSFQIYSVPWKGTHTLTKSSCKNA

[5] = biological target: T7, cystatin C from mouse, P21460
T7 chain: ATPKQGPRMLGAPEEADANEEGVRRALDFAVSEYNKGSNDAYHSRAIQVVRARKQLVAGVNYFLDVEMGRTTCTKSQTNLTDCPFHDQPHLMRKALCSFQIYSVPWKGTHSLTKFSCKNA

[6] = biological target: Fc-fragment generated by papain cleavage, including 12 amino acids of the hinge region
[7] = biological target: T8, cystatin C from chicken, P01038
T8 chain: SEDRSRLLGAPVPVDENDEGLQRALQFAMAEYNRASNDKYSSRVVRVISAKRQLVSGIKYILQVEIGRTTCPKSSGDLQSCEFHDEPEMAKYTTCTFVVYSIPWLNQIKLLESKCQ

cystatin D, P28325 = biological target: T9, cystatin D, P28325
T9 chain: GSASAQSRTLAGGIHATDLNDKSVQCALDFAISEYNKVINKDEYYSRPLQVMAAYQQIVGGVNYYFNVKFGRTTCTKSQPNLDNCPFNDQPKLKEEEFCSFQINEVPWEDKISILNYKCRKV

fibronectin, P02751, sequence (P02751 other isoform, or with tags, fused parts or gaps): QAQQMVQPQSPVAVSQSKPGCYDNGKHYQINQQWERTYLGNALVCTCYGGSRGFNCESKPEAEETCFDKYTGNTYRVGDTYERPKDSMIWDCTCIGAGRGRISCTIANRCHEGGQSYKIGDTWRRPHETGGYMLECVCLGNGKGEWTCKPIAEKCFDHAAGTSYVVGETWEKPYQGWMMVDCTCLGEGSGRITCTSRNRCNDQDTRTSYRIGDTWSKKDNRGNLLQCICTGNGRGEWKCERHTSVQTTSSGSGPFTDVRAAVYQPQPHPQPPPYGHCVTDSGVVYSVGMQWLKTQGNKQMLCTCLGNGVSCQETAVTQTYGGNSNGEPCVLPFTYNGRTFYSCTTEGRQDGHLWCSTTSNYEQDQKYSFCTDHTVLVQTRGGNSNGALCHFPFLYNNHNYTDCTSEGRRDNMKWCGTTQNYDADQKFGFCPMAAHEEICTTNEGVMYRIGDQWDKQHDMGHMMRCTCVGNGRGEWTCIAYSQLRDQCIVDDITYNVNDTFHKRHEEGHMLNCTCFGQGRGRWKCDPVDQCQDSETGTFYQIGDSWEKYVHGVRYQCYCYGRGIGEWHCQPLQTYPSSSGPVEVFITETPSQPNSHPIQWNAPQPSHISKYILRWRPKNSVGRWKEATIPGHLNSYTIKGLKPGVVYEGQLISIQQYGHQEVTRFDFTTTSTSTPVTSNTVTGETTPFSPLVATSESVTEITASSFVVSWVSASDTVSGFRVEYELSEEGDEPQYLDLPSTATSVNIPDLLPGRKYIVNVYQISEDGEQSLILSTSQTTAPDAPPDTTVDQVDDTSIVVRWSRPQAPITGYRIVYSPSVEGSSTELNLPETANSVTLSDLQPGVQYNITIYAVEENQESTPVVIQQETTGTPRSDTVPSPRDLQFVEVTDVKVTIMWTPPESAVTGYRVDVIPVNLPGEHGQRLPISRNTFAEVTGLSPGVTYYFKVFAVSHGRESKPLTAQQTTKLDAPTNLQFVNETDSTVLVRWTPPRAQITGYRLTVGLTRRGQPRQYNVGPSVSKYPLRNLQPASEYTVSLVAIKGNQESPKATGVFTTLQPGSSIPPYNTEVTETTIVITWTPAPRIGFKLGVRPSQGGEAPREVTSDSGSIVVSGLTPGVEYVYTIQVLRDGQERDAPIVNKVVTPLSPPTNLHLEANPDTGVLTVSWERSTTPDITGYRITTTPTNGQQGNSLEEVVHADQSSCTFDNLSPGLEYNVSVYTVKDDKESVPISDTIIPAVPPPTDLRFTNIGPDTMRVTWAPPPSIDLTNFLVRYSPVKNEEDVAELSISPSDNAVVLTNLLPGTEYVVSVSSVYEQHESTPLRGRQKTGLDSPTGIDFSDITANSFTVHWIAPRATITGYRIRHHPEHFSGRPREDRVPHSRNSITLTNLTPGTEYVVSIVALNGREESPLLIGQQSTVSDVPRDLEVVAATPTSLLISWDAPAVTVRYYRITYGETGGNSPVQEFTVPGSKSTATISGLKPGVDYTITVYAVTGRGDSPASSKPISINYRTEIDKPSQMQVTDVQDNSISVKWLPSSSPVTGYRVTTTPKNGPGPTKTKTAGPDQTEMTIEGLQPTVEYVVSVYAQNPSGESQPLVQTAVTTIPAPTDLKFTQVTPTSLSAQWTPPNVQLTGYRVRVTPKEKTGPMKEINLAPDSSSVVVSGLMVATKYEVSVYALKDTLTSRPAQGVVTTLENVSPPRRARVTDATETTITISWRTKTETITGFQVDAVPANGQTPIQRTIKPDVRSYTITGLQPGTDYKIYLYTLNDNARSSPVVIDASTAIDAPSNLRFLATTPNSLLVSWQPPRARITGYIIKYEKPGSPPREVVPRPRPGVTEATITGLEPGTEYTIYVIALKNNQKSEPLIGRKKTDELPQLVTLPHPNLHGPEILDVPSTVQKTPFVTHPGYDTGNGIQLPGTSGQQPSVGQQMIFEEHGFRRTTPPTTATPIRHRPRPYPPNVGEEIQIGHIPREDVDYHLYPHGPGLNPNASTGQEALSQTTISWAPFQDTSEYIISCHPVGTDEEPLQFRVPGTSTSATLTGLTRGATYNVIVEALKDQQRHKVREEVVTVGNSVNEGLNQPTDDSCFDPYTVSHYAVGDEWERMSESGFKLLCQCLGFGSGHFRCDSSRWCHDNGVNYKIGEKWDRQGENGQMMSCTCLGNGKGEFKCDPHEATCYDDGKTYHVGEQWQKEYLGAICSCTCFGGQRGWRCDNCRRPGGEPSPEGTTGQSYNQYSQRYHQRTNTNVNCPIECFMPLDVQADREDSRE
lactoferrin, P02788, sequence (P02788 20-710): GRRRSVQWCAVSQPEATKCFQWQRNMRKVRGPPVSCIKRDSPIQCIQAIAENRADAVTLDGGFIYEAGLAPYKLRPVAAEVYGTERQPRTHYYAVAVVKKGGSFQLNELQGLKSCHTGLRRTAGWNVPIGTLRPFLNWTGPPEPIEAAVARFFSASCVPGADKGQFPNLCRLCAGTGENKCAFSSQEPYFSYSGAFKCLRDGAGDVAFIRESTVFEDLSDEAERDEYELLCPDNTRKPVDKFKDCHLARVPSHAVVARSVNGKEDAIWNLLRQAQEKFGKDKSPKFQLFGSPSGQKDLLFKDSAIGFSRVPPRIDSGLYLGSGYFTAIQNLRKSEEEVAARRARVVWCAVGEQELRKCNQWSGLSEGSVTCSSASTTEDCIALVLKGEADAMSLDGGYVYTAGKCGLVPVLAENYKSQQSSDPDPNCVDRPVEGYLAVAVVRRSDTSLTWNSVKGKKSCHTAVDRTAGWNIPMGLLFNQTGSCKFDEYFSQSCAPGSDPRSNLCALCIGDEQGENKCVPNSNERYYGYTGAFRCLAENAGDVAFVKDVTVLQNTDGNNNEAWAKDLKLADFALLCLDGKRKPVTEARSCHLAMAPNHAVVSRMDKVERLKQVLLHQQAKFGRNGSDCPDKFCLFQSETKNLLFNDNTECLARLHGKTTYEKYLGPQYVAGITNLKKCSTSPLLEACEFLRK
transferrin, P02787, sequence (P02787 20-698): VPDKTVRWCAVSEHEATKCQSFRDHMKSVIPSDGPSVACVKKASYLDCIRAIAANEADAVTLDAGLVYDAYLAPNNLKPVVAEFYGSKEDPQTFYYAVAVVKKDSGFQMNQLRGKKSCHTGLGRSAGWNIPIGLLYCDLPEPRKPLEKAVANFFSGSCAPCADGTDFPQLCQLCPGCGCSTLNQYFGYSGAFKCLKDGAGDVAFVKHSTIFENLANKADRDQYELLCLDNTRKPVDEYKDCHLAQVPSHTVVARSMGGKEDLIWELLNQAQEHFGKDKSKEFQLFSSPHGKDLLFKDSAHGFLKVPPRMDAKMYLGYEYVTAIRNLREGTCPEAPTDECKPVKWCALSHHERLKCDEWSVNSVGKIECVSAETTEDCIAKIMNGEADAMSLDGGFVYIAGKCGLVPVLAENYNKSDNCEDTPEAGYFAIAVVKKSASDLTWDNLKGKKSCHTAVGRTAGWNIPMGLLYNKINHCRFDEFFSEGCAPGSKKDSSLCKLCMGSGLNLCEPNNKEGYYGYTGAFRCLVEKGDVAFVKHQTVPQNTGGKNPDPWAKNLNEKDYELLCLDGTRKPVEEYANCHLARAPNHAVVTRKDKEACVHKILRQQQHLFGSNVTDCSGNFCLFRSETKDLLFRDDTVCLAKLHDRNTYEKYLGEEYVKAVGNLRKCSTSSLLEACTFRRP
α 1-antitrypsin, P01009, sequence (P01009 whole entry, looked up): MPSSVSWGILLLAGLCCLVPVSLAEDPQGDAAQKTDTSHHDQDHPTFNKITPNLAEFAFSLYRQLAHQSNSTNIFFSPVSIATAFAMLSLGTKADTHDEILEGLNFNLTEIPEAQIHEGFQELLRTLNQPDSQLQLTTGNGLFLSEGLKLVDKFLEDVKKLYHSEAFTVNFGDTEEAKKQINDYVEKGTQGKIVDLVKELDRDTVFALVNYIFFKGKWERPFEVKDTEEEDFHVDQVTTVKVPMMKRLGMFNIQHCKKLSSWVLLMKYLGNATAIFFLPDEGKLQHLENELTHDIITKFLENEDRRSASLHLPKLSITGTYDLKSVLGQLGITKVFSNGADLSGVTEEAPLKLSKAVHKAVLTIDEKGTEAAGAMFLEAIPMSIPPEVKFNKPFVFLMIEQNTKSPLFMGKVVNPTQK

B1: IdeS (Immunoglobulin G-degrading enzyme of S. pyogenes), purified from culture supernatant of S. pyogenes strain AP1 (protein)
chain: DSFSANQEIRYSEVTPYHVTSVWTKGVTPPANFTQGEDVFHAPYVANQGWYDITKTFNGKDDLLCGAATAGNMLHWWFDQNKDQIKRYLEEHPEKQKINFNGEQMFDVKEAIDTKNHQLDSKLFEYFKEKAFPYLSTKHLGVFPDHVIDMFINGYRLSLTNHGPTPVKEGSKDPRGGIFDAVFTRGDQSKLLTSRHDFKEKNLKEISDLIKKELTEGKALGLSHTYANVRINHVINLWGADFDSNGNLKAIYVTDSDSNASIGMKKYFVGVNSAGKVAISAKEIKEDNIGAQVLGLFTLSTGQDSWNQTN
For B1, the cleavage products (fibronectin, P02751) was “No cleavage products could be detected”, the cleavage products (H-kininogen, P01042) was “No cleavage products could be detected” and the “degradation of the peptide” value [1] was “did not reveal any degradation of the peptides”. For the same protein, the IdeS digestion [2] was “all were susceptible for IdeS digestion”, the cleavage products (laminin) was “No cleavage products could be detected” and the cleavage products (α 1-antitrypsin, P01009) was “No cleavage products could be detected”. For the same protein, the cleavage products (cystatin C, P01034) was “No cleavage products could be detected”, the cleavage products (transferrin, P02787) was “No cleavage products could be detected” and the cleavage products (aprotinin, P00974) was “No cleavage products could be detected”. For the same protein, the “degradation of the peptide” value [3] was “did not reveal any degradation of the peptides”, the “cleavage of the peptide” value (Z-LVG-CHN2) was “Neither was the synthetic peptide Z-LVG-CHN2, which inhibits IdeS activity, cleaved by excess IdeS” and the cleavage products (fibrinogen, P02671) was “No cleavage products could be detected”. For the same protein, the cleavage products [4] was “No cleavage products could be observed”, the cleavage products [5] was “No cleavage products could be observed” and the cleavage [6] was “a Fc-fragment generated by papain cleavage, including 12 amino acids of the hinge region is cleaved by IdeS”. For the same protein, the cleavage products (whole human plasma) was “No cleavage products could be detected”, the cleavage products (lactoferrin, P02788) was “No cleavage products could be detected” and the cleavage products [7] was “No cleavage products could be observed”. For the same protein, the cleavage products (albumin, P02768) was “No cleavage products could be detected” and the cleavage products (cystatin D, P28325) was “No cleavage products could be detected”.
